Test [1] has as its target human CD3 epsilon/delta heterodimer, Fc-tagged (human). In words: SPR, 25C antigen-capture.
Test [2] addresses human CD3 on Jurkat cells (human). In words: FACS.
For test [3], the target named is human CD3 epsilon/delta heterodimer, Fc-tagged (human). The experiment in a line: SPR, 25C antibody-capture.
Test [4] has the same target. In words: SPR, 25C antibody-capture. This is another data set of the same source.
Test [5] addresses human CD3 on Jurkat cells (human). The experiment in a line: FACS. This is another data set of the same source.

Numbering of substitutions follows the chain as printed.

human CD3 epsilon/delta heterodimer, Fc-tagged (human), sequence (chain, as listed by the source mutant, chain 1 of 2): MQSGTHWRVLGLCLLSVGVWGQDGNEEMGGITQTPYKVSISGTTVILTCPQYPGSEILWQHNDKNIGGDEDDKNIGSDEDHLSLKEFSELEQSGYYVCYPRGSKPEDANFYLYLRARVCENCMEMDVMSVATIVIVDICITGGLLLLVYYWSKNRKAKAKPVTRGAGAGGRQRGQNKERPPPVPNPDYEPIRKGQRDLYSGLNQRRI
human CD3 epsilon/delta heterodimer, Fc-tagged (human), sequence (chain, as listed by the source mutant, chain 2 of 2): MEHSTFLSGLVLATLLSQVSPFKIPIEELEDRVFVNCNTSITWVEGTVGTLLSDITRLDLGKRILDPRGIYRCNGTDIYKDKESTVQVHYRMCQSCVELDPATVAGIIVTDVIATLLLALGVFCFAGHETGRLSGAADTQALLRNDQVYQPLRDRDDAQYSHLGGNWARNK
human CD3 on Jurkat cells (human), sequence (chain, as listed by the source, chain 1 of 2): as the sequence (chain, as listed by the source mutant, chain 1 of 2) above
human CD3 on Jurkat cells (human), sequence (chain, as listed by the source, chain 2 of 2): as the sequence (chain, as listed by the source mutant, chain 2 of 2) above

B1: H2M3547N (antibody, V domains shown)
VH: EAQLVESGGGLVQPGRSLRLSCTTSGFTFDDYTMHWVRQAPGKGLEWISDISWNGGTKGYADSVKGRFTISRDNAKNSLYLQMDSLRGEDTALYYCVKDKSGYGHFYFGLDVWGQGTTVTVSS
VL: DIQMTQSPSSLTASVGDRVTFTCRASQSISRHLSWYQQKPGKAPKLLIYAASSLESGVPSRFSGSGSGTDFTLTISSLHPEDFATYYCQQSYSNPPITFGQGTRLEIK
As for B1, the Kd in test [1] was found to be 0.0215 nM.

B2: H2M2705N (antibody, V domains shown)
VH: QVQLVESGGGVVQPGRSLRLACVASGFTFRSYGMHWVRQAPGKGLQWVAMIYYDGKNKYYADSVRGRFTISRDNSKNTLYLQMNNLRVEDTAMYFCARGPGYNWLDPWGQGTLVTVSS
VL: EIVMTQSPATLSVSPGERATLSCRASQRISSNLAWYQQKPGQAPRLLIYGASTRATGSPARFSGSGSGTDFTLTISSLQSEDVAVYYCQQHHNWPLTFGGGTKVEIK
For B2, in test [2], a half-maximal response (EC50) required 0.296 nM. For the same molecule, the Kd in test [3] stood at 13.7 nM; in test [1], 0.14 nM.

B3: H1H7258P (antibody, V domains shown)
VH: QVQLVESGGGLVQPGRSLRLSCAASGFTFDDYTMHWVRQGPGKGLEWVSDIGWNSNTIGYADSVKGRFTISRDNARNSLYLQMNSLRPEDTALYYCVKDKSGYGKFQYGLDVWGQGTTVTVSS
VL: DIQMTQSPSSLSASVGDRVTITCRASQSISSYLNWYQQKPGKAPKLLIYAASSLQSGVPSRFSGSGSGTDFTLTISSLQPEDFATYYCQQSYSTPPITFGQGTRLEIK
In test [4], B3 yielded a Kd of 24 nM.

B4: H1H7241P (antibody, V domains shown)
VH: B3 VH with Q1E, D30A, T69A, R76K
VL: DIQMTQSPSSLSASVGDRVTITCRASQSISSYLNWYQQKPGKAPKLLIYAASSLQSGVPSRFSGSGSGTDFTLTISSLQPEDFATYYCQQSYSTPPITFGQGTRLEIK
For B4, in test [4], the Kd was determined as 22 nM.

B5: H2M3548N (antibody, V domains shown)
VH: EVQLVESGGGLVQPGRSLRLSCAASGFKFADYAMHWVRQAPGKGLEWVSEISWNSGSIGYVDSVKGRFTISRDNAKNSLYLQMNSLRAEDTALYYCVKDKSGYGHYYIGMDVWGQGTTVIVSS
VL: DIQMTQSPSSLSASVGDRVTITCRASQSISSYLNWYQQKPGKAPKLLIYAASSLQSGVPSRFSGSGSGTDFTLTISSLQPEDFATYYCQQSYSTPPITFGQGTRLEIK
Molecule B5 registered an EC50 in test [2] of 1.1 nM. The molecule further registered a Kd in test [3] of 130 nM.

B6: H1H5753B (antibody, V domains shown)
VH: QVQLVESGGGLVQPGGSLRLSCAASYFTFSSFAMNWVRQAPGQGLEWVSAISGRVSAISGSGGITYYADSVKGRFIISRDNSKNTLYLQMSGLRAEDTAVYYCAKGPYLTTVTPFDYWGQGTLVTVSS
VL: DIQLTQSPSSVSASVGDRVTITCRASQGISSWLAWYQQKPGKAPKLLIYAVSSLQNGVPSRFSGSGSGTDFTLTISSLQPEDFATYYCQQANSFPFTFGPGTKLEIKR
Consider B6, for which the binding result in test [5] is “no binding”.

B7: H1H5756B (antibody, V domains shown)
VH: EVQLVESGGGVVQPGRSLRLSCTASGFPFSRYGMHWVRQAPGKGLEWVTFIWYDGSNKYYADSAKGRFTITRDNSKNTVYLQMDSLRADDTAVYYCVRDQAALYYFDSWGQGTLVTVSS
VL: B6 VL with L4M, S31R, Y49S, V51A, N56S, S77G, Q90K
For the molecule B7, the binding result in test [5] is reported as “no binding”.

B8: H1H5785B (antibody, V domains shown)
VH: QVQLVESGGGVVQPGRSLRLSCAASGLTFSTYVMHWVRQAPGKGLAWVAVIANDGSNKYYADSVKGRFTISRDNSKNTLYLQMNSLRPEDTAVYFCAKEGGTSGSYYYYGMDVWGQGTTVTVSS
VL: DIQMTQSPDSLAVSLGERATINCKSSQSLLFNSINKNYLAWYQQKPGQPPKLLLYWASTRESGIPDRFSGSGSGTDFTLTITSLQAEDVALYYCQQYYSIPWTFGQGTKVEIKR
Regarding B8, in test [5], the binding result was “no binding”.

B9: H2M2776N (antibody)
chain 1: QVQLVESGGGVVQPGRSLRLSCAASGFTFRSFGMHWVRQAPGRGLEWVAMIYFDGKNKYYADSVRGRFTISRDNSKNTLYLEMSSLRAEDTAVYFCARGPGYNWLDPWGQGTLVTVSS
chain 2: EIVMTQSPATLSVSPGERVILSCRASQSISRNLAWYQXKPGQAPRLLIYGATTRATGVPARFSGSGSGTEFTLTISSLQSEDFAVFYCQQYNNRPLTFGGGTEVEIK
modifications: not fully specified; listing feature
The molecule B9 displayed a Kd in test [1] of 0.14 nM.
